{
  "source": "paper PMC7335169",
  "target": "SAM complex (Sorting and Assembly Machinery complex) from Myceliophthora thermophila: Sam50, Sam35 and Sam37 (Myceliophthora thermophila)",
  "assay": "cryo-EM structure; SAM complex in detergent GDN (0.02%), 20 mM HEPES pH 8.0, 150 mM NaCl; monomer and three dimer conformations, 3.0-3.9 Å; the authors call the dimers non-physiological",
  "data": [
    {"substance": "SAM complex (Sorting and Assembly Machinery complex) from Myceliophthora thermophila: Sam50, Sam35 and Sam37", "values": [
      {"measurement": "stoichiometry N", "value": 2}
    ]}
  ]
}
